Literature values in PMC3726369.
Where two headings read alike, the source gives them in different places.

Legend:
[1] = target: LH receptor (Homo sapiens) (UniProt P22888)
[2] = target: LH receptor (Rattus norvegicus) (UniProt P16235)
[3] = target: LH receptor (Homo sapiens) (UniProt P22888); remark: listed apart in the source

Sequence of UniProt P22888 (P22888 27-699): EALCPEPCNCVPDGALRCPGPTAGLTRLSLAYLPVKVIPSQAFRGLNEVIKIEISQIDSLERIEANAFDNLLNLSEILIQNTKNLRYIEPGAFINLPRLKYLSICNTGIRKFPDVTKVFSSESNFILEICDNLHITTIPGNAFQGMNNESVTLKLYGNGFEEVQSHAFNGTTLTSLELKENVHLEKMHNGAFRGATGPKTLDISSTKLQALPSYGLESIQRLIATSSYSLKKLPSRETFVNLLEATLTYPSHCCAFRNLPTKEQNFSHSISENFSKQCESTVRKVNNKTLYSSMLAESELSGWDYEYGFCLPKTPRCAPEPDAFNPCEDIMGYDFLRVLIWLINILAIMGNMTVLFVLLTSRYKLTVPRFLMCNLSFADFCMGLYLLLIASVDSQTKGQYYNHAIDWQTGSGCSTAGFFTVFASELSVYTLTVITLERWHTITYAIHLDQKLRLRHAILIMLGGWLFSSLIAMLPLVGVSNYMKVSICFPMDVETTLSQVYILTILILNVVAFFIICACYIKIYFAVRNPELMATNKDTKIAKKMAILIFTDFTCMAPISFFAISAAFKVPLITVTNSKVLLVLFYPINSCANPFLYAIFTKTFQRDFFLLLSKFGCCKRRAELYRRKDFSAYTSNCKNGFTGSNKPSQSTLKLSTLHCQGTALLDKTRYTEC
Sequence of UniProt P16235 (P16235 27-700): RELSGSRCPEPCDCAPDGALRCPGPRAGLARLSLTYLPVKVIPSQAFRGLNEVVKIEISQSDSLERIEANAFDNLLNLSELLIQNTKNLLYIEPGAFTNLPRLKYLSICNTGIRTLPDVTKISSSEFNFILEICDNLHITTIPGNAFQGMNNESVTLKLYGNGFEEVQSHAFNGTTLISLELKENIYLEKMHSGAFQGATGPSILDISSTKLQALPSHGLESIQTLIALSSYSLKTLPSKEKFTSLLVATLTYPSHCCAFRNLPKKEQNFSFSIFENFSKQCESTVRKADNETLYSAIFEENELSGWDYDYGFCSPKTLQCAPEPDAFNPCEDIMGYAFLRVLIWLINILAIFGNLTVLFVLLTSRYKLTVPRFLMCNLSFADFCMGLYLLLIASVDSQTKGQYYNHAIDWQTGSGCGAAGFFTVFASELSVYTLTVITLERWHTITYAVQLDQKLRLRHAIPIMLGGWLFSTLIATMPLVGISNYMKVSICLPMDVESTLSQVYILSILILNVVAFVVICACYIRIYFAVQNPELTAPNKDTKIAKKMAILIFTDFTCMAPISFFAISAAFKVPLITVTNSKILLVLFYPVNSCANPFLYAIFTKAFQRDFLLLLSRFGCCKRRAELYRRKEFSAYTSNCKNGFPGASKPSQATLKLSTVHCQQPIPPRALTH

Kd [1] [nM] | Kd [2] [nM] | Kd [3] [nM] | Substance
9 | 0.09 | – | LH (from UniProt P01215)
– | – | 4 | hCG (from UniProt P01215)
